This is an account of results in patent publication US5856155, “Compounds and related methods for modulating potassium ion channels and assays for such compounds” (The Johns Hopkins University School Of Medicine, dated 1999).

The labels stand for the following.
T1: NH2-terminal domain of rshal1 (a.a. 1-228) (Kv4.2) (rat, UniProt Q63881)
T1 sequence: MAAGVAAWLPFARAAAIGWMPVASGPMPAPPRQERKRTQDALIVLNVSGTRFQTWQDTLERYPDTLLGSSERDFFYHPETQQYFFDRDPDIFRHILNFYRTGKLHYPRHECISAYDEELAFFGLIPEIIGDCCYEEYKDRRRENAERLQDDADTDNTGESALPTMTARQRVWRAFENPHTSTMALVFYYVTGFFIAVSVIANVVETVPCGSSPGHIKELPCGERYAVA

T2: NH2-terminal domain of NGK2b (a.a. 1-180) (Kv3.1) (rat, UniProt P25122)
T2 sequence: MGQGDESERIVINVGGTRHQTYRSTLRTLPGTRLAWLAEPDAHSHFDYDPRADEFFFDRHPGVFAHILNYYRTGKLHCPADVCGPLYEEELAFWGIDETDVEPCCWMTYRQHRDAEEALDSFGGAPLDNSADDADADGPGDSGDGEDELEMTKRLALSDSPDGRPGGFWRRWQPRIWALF

T3: NH2-terminal domain of DRK1 (a.a. 1-182) (Kv2.1) (rat, UniProt P15387)
T3 sequence: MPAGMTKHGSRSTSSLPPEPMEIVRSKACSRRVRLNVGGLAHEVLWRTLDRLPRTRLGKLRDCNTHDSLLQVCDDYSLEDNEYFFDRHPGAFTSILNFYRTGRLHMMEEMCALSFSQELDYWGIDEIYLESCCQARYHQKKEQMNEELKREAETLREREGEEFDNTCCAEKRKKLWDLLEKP

T4: NH2-terminal domain of Drosophila Shaw2 (Kv3 subfamily) (Drosophila, UniProt P17972)
T4 sequence: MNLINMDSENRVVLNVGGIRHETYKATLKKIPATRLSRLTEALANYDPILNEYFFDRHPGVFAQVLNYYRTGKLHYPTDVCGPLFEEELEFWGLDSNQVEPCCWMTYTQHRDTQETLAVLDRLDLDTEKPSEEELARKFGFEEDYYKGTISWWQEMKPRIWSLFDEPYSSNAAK

T5: NH2-terminal domain of Drosophila Shal2 (Kv4 subfamily) (Drosophila, UniProt P17971-1)
T5 sequence: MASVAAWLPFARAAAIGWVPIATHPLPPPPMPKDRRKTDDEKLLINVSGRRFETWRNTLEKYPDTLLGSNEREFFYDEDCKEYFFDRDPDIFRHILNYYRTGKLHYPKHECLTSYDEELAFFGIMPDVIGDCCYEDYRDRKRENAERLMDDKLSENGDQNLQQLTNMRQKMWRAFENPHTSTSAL

B1: ΔKvβ2(39-316) (other)
chain: YRNLGKSGLRVSCLGLGTWVTFGGQITDEMAEHLMTLAYDNGINLFDTAEVYAAGKAEVVLGNIIKKKGWRRSSLVITTKIFWGGKAETERGLSRKHIIEGLKASLERLQLEYVDVVFANRPDPNTPMEEIVRAMTHVINQGMAMYWGTSRWSSMEIMEAYSVARQFNLIPPICEQAEYHMFQREKVEVQLPELFHKIGVGAMTWSPLACGIVSGKYDSGIPPYSRASLKGYQWLKDKILSEEGRRQQAKLKELQAIAERLGCTLPQLAIAWCLRNEG
B2: ΔKvβ2(39-367) (other)
chain: YRNLGKSGLRVSCLGLGTWVTFGGQITDEMAEHLMTLAYDNGINLFDTAEVYAAGKAEVVLGNIIKKKGWRRSSLVITTKIFWGGKAETERGLSRKHIIEGLKASLERLQLEYVDVVFANRPDPNTPMEEIVRAMTHVINQGMAMYWGTSRWSSMEIMEAYSVARQFNLIPPICEQAEYHMFQREKVEVQLPELFHKIGVGAMTWSPLACGIVSGKYDSGIPPYSRASLKGYQWLKDKILSEEGRRQQAKLKELQAIAERLGCTLPQLAIAWCLRNEGVSSVLLGASNAEQLMENIGAIQVLPKLSSSIVHEIDSILGNKPYSKKDYRS
B3: Kvβ1 (a.a. 1-401) (other)
chain: MQVSIACTEHNLKSRNGEDRLLSKQSSTAPNVVNAARAKFRTVAIIARSLGTFTPQHHISLKESTAKQTGMKYRNLGKSGLRVSCLGLGTWVTFGGQISDEVAERLMTIAYESGVNLFDTAEVYAAGKAEVILGSIIKKKGWRRSSLVITTKLYWGGKAETERGLSRKHIIEGLKGSLQRLQLEYVDVVFANRPDSNTPMEEIVRAMTHVINQGMAMYWGTSRWSAMEIMEAYSVARQFNMIPPVCEQAEYHLFQREKVEVQLPELYHKIGVGAMTWSPLACGIISGKYGNGVPESSRASLKCYQWLKERIVSEEGRKQQNKLKDLSPIAERLGCTLPQLAVAWCLRNEGVSSVLLGSSTPEQLIENLGAIQVLPKMTSHVVNEIDNILRNKPYSKKDYRS
B4: Kvβ2 (a.a. 1-367) (other)
chain: MYPESTTGSPARLSLRQTGSPGMIYSTRYGSPKRQLQFYRNLGKSGLRVSCLGLGTWVTFGGQITDEMAEHLMTLAYDNGINLFDTAEVYAAGKAEVVLGNIIKKKGWRRSSLVITTKIFWGGKAETERGLSRKHIIEGLKASLERLQLEYVDVVFANRPDPNTPMEEIVRAMTHVINQGMAMYWGTSRWSSMEIMEAYSVARQFNLIPPICEQAEYHMFQREKVEVQLPELFHKIGVGAMTWSPLACGIVSGKYDSGIPPYSRASLKGYQWLKDKILSEEGRRQQAKLKELQAIAERLGCTLPQLAIAWCLRNEGVSSVLLGASNAEQLMENIGAIQVLPKLSSSIVHEIDSILGNKPYSKKDYRS

The experiment “Kvβ1 (a.a. 1-401)” addresses B3. The experiment can be described thus: cell-based or functional assay.
Another experiment concerns the target ShBΔ(6-46) (Drosophila, UniProt P08510). The experiment can be described thus: cell-based or functional assay.
The target in experiment [1] is GAL4 DNA binding (DB) domain alone (Saccharomyces cerevisiae (strain ATCC …, UniProt P04386)). Kind of experiment: yeast two-hybrid control, growth on medium lacking histidine. An excerpt: (§1) Figure 2: FIG. 2 depicts the results of a yeast two-hybrid assay wherein YGH1 yeast cells were transformed by different pairwise combinations of the two-hybrid constructs that express either fusion proteins of the DNA binding domain of GAL4 or the transcription activation domain of GAL4. […] In the middle panel, the transformants carrying the two different fusion proteins were first selected by dextrose synthetic drop-out medium with no supplement of leucine and tryptophan (SD, −leu, −trp, +his) to ensure that in different combinations the transformants have both plasmids. In the lower panel, the identical number of cells in each combination were also dotted on the same medium without histidine (SD, −leu, −trp, −his). The transformants were allowed to grow at 30° C. for 65 hours.
(§2) Cytoplasmic NH_2— and COOH— terminal domains of different α-subunits were subcloned and expressed as fusion proteins of the GAL4 DNA binding (DB) domain. Kvβ1 was expressed as a fusion protein of either the GAL4 DNA binding (DB) domain or transcription activation (TA) domain. […] When Kvβ1 was coexpressed with the NH_2-terminal domain of RCK4 (NRCK4) (a.a. 1–306; an α-subunit sensitive to Kvβ1-mediated inactivation), the yeast transformants grew on a selective medium (FIG. 2, No. 1).

In experiment [2] the target is T6, GAL4 transcription activation (TA) domain alone (Saccharomyces cerevisiae (strain ATCC …, UniProt P04386)). The experiment is described as above.
Excerpt: as §1, §2

In experiment [3] the target is T7, COOH-terminal domain of RCK4 (CRCK4, a.a. 566-651) (rat, UniProt P15385). The experiment can be described thus: yeast two-hybrid, growth on medium lacking histidine.
Excerpt: as §1, with “FIG. 6B” for “Figure 2: FIG. 2”, “FIG. 6B depicts the” for “2: FIG. 2 depicts the”, “lower panel, identical numbers” for “lower panel, the identical number”, “panel, identical numbers of cells” for “the identical number of cells”
(§3) In the case of Kvβ1, its subfamily-specific association with the NH_2-terminal domains of Kv1 α-subunits is essential for the Kvβ1-mediated inactivation. […] What is not known, however, is whether the failure to detect the Kv2.1-Kvβ2 complex is due to the incompatibility of these two subunits to interact or their limited overlapping expression in vivo. To test the specificity of the Kvβ2-α (interaction, pairwise combinations of Kvβ2 and the NH_2-terminal domains of eight different α-subunits were analyzed in the yeast two hybrid system. The eight α-subunits included were: ShB (Kamb et al., *Cell*, 50, 405–413 (1987); Pongs et al., *EMBO J.*, 7, (1988); Tempel et al., *Science*, 237, 770–775, (1987), Shabll, Shaw2, and Shal2 from Drosophila (Butler et al., *Nucleic Acids Res.*, 18, 2173–2174 (1990); Kv1.4 (or RCK4) (Stuhmer et al., *EMBO J.*, 8, 3235–3244 (1989), Kv2.1 (or DPK1) (Frech et al., *Nature*, 340, 642–645 (1989), Kv3.1 (or NGK2b) (Yokoyama et al., *FEBS Lett.*, 259, 37–42 (1989), and Kv4.2(or rShal1) (Baldwin et al., *Neuron*, 7, 471–483 (1991); Roberds et al., *Proc. Natl. Acad. Sci. USA*, 88, 1798–1802 (1991)) from rat.

For experiment [4], the target named is T1, NH2-terminal domain of rshal1 (a.a. …). The description is as above.
Excerpt: as §1, with “FIG. 6B” for “Figure 2: FIG. 2”, “FIG. 6B depicts the” for “2: FIG. 2 depicts the”, “lower panel, identical numbers” for “lower panel, the identical number”, “panel, identical numbers of cells” for “the identical number of cells”
as §3

Experiment [5] addresses T2, NH2-terminal domain of NGK2b (a.a. …). The description is as above.
Excerpt: as §1, with “FIG. 6B” for “Figure 2: FIG. 2”, “FIG. 6B depicts the” for “2: FIG. 2 depicts the”, “lower panel, identical numbers” for “lower panel, the identical number”, “panel, identical numbers of cells” for “the identical number of cells”
as §3

Experiment [6] concerns the target T3, NH2-terminal domain of DRK1 (a.a. …). The description is as above.
Excerpt: as §1, with “FIG. 6B” for “Figure 2: FIG. 2”, “FIG. 6B depicts the” for “2: FIG. 2 depicts the”, “lower panel, identical numbers” for “lower panel, the identical number”, “panel, identical numbers of cells” for “the identical number of cells”
as §3

Experiment [7] has as its target T7, COOH-terminal domain of RCK4 (CRCK4, …). Kind of experiment: yeast two-hybrid, growth on medium lacking histidine; similar results with a β-galactosidase assay.
Excerpt: as §1, with “FIG. 6A” for “Figure 2: FIG. 2”, “FIG. 6A depicts the” for “2: FIG. 2 depicts the”, “lower panel, identical numbers” for “lower panel, the identical number”, “panel, identical numbers of cells” for “the identical number of cells”
To begin the test, the NH_2-terminal domain and COOH-terminal domain of Kv1.4 (RCK4) were subcloned. These truncated cytoplasmic fragments, i.e., the NH_2-terminal domain (a.a. 1–306) and COOH-terminal domain (a.a. 566–651), were expressed individually with Kvβ2 as GAL4 fusion proteins. […]
Similar results were obtained using a β-galactosidase assay (data not shown). Thus, like Kvβ1, Kvβ2 was determined to interact with the NH_2-terminal domain of the Kv1.4 α-subunit.

For experiment [8], the target named is T4, NH2-terminal domain of Drosophila Shaw2 …. The experiment can be described thus: yeast two-hybrid, growth on medium lacking histidine.
Excerpt: as §1, with “FIG. 6B” for “Figure 2: FIG. 2”, “FIG. 6B depicts the” for “2: FIG. 2 depicts the”, “lower panel, identical numbers” for “lower panel, the identical number”, “panel, identical numbers of cells” for “the identical number of cells”
as §3

The target of experiment [9] is T5, NH2-terminal domain of Drosophila Shal2 …. Described as above.
Excerpt: as §1, with “FIG. 6B” for “Figure 2: FIG. 2”, “FIG. 6B depicts the” for “2: FIG. 2 depicts the”, “lower panel, identical numbers” for “lower panel, the identical number”, “panel, identical numbers of cells” for “the identical number of cells”
as §3

Experiment [10] concerns the target T6, GAL4 transcription activation (TA) …. Kind of experiment: yeast two-hybrid control (FIG. 6A, No. 1), growth on medium lacking histidine.
Excerpt: as §1, with “FIG. 6A” for “Figure 2: FIG. 2”, “FIG. 6A depicts the” for “2: FIG. 2 depicts the”, “lower panel, identical numbers” for “lower panel, the identical number”, “panel, identical numbers of cells” for “the identical number of cells”
To begin the test, the NH_2-terminal domain and COOH-terminal domain of Kv1.4 (RCK4) were subcloned. These truncated cytoplasmic fragments, i.e., the NH_2-terminal domain (a.a. 1–306) and COOH-terminal domain (a.a. 566–651), were expressed individually with Kvβ2 as GAL4 fusion proteins. Using this methodology, if Kvβ2 were to interact with one or both truncated Kv1.4 fragments, the resultant interaction(s) would confer the ability upon the yeast transformants to grow on synthetic medium lacking histidine. Table 2 below defines the conditions of the yeast two-hybrid system in FIG. 6A.

In the case of B1, the “percent of recorded cells with fast inactivation, whole cell voltage clamp recording of transfected COS cells” value with Kvβ1 (a.a. 1-401) and with ShBΔ(6-46) was 61 % of cells throughout.
In the case of B2, the “percent of recorded cells with fast inactivation, whole cell voltage clamp recording of transfected COS cells” value with Kvβ1 (a.a. 1-401) and in the experiment with ShBΔ(6-46) was 22.5 % of cells throughout.
Regarding B3, the binding result in [1], in experiment [2], in experiment [3], in [4], in experiment [5] and in experiment [6] was “no binding” each time.
B4: the binding result in experiment [7], in [8], in experiment [9], in experiment [4], in experiment [5] and in [6] was “no binding” throughout. Also, the binding result in experiment [10] is reported as “no binding”.
